Experimental data: the supplement of paper PMC10567573
± gives the standard deviation.

Experiment: protein stability index of a GFP-peptide fusion (GPS, HEK-293T) (PSI 1-6); higher = more stable
Conditions: c terminus: a fixed tail appended
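Note: 24-mer peptide tiles fused after GFP, lentivirally expressed, FACS-sorted into six equal bins by GFP/DsRed ratio, decoded by Illumina sequencing, PSI is the read-weighted mean bin number.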

Sequence | protein stability index (treatment: DMSO) | protein stability index (treatment: MLN4924 1 uM, 8 h)
ENHEIYMKDSMSAAEVGTGQYATT [EPB41L3] | 4.79 ± 0.22 | 4.83 ± 0.3
EPEEPSEIPERRDSGVGASLTRSN [DLC1] | 5.51 ± 0.31 | 5.46 ± 0.33
EPGPAGPPPPPSPSSLGPLLPLQR [BTBD1] | 4.75 ± 0.24 | 4.76 ± 0.52
EPITGWRKTVCHNGVLGLSRLLFF [LPCAT4] | 2.57 ± 0.71 | 2.2 ± 0.37
EPLFEAGDATLASDLQDWASVGAF [FOXJ1] | 3.85 ± 0.14 | 3.92 ± 0.4
EPLVLYNQNLSNRPSFNRTPIPWL [MYOZ1] | 2.39 ± 0.4 | 2.44 ± 0.17
EPQTEHQQESESEIDSVPKTQSEL [MIA2] | 5.46 ± 0.13 | 5.59 ± 0.21
EPQWFYEETESSDDVEVLTLKKFK [C8orf76] | 4.66 ± 0.094 | 4.74 ± 0.15
ESEGSESSGRSCRNERSIQEKLQV [SMG5] | 4.82 ± 0.12 | 4.75 ± 0.27
ESSVPVTPSVPPPASQHSTPAGLP [FBF1] | 5.04 ± 0.18 | 5.19 ± 0.17
ETAVEGDPSGVSGATVGRKSRRSR [C18orf25] | 5.484 ± 0.04 | 5.5 ± 0.25
ETEARYSSQLAQMQCLISNVEAQL [KRT36] | 3.26 ± 0.31 | 3.2 ± 0.34
ETLPELKDDKDFTGTVHRIDNTTV [KCNA1] | 5.12 ± 0.24 | 5.17 ± 0.072
ETRVWHRRDGKWQNVHFHRSGSPT [CAMK2D] | 3.74 ± 0.35 | 3.71 ± 0.17
EVEKRGINGSEGDGAEIAEKFVFF [DYNC2LI1] | 3.8 ± 0.33 | 4.41 ± 0.34
EVLRRLTSSVSCALDEAAAALTRM [ANKRD17] | 2.3 ± 0.53 | 2.1 ± 0.3
EVLRSEAGIELIIEDDIRPEKQKR [MYBL2] | 4.21 ± 0.24 | 4.31 ± 0.34
EVVMNSQQTPVGTPKDKRVSNTPL [PALM] | 3.44 ± 0.2 | 3.61 ± 0.2
EWNQKRARKAMRNGISPIIIDNTN [N4BP2L1] | 2.65 ± 0.16 | 3.02 ± 0.55
EYQLFEELGKGAFSVVRRCMKIPT [CAMK2D] | 2.07 ± 0.27 | 2.2 ± 0.54
FDLAKGNAGKVNLPKELPADAVNL [PLAGL1] | 4.41 ± 0.21 | 4.5 ± 0.29
FDPDAKGLSDPGKIKRLRSQVQVS [HNF4A] | 3.84 ± 0.18 | 4.06 ± 0.28
FEDLNKRKDTKEIYTHFTCATDTK [GNAI1] | 4.57 ± 0.16 | 4.41 ± 0.42

Sequence | protein stability index (treatment: DMSO) | protein stability index (treatment: MLN4924 1 uM, 8 h)
FEEFVHYLQDHEKKLRLVFKSLDK [SLC25A25] | 2.18 ± 0.27 | 2.51 ± 0.31
FFRMFDRNTKRDVTLEASRENSKP [PPP2R2B] | 3.45 ± 0.14 | 3.82 ± 0.23
FGAAYVLEQASSHIGNSTQATVRD [ATL3] | 3.06 ± 0.28 | 3.72 ± 0.33
FGLTYRDAENQKNWLDPAKEIKKQ [EPB41L3] | 3.68 ± 0.082 | 4.15 ± 0.089
FGTIISGIQLLIVEYKDIASIHWD [SLC35F2] | 3.15 ± 0.29 | 3 ± 0.34
FHNLRNTLDGYGIHPKSIDLDNYF [NFE2L1] | 2.31 ± 0.44 | 2.07 ± 0.15
FKHTLSISRALLSDVVPEKERPLV [MFSD9] | 3.04 ± 0.12 | 3.24 ± 0.21
FLAAEQDIREEIRKVVQSLEQTAR [TSN] | 2.57 ± 0.45 | 3.25 ± 0.64
FLFNSELLSDVRFVLGKGRGAAAA [BTBD1] | 2.12 ± 0.33 | 2.33 ± 0.34
FLMLINLGLGSMIGTMAGITTPII [SLC6A17] | 3.1 ± 0.31 | 3.03 ± 0.76
FLQEEAIDRNYVPGKSLAVSCPGW [SNX12] | 2.73 ± 0.3 | 3.2 ± 0.2
FMLMLLVLGIQVKCFHEIITIGYR [CDS1] | 3.31 ± 0.45 | 3.3 ± 0.41
FNIFDWLGRSLTAVFMWPGKDSRW [SLC29A1] | 2.45 ± 0.79 | 2.63 ± 0.5
FPKSEQVYLHFLSVVTEDGPEPKD [ZNF232] | 2.58 ± 0.5 | 3.39 ± 0.56
FQTRQEMTSMSAELKMRAIQAEER [LRRC45] | 4.12 ± 0.29 | 4.48 ± 0.22
FQVLCSINSIIHNPRAPVIIYKQT [CEP70] | 2.76 ± 0.83 | 2.6 ± 1.1
FSGSNEVDQMNRIVEVLGIPPAAM [DYRK1B] | 2.94 ± 0.14 | 3.23 ± 0.22
FSIPPWRYDAEVVAIAQKFAALRA [MYORG] | 2.15 ± 0.3 | 2.22 ± 0.17
FSPTPPQQFQPAGTDQVCVLEWGA [FCHSD1] | 2.49 ± 0.27 | 2.86 ± 0.35
FSTRALVLSILHATLPGIFMLLLI [SOAT2] | 3.16 ± 0.35 | 3.37 ± 0.52
FTQSGPIVSRATGRCLEVEMSKDA [GALNT9] | 2.71 ± 0.35 | 3.34 ± 0.54
FYQHLLLYIQSHYQLELQCCIDWT [SMG5] | 3.17 ± 0.36 | 3.02 ± 0.38
GAFGIVHLCLRKADQKLVIIKQIP [NEK8] | 2.55 ± 0.48 | 2.3 ± 0.33

Sequence | protein stability index (treatment: DMSO) | protein stability index (treatment: MLN4924 1 uM, 8 h)
GAFPPRGPRPVQSVVPEMEESGAQ [CDK4] | 5.22 ± 0.32 | 5.23 ± 0.18
GAHEQVDFKDFYPAIADLFAESLQ [P3H4] | 2.84 ± 0.51 | 3.08 ± 0.53
GAKDHASIQMNVAEVSWEPGRREG [RPS21] | 4.14 ± 0.49 | 4.41 ± 0.41
GATVRSFSINSRLASSLGNLNAAT [CDC14A] | 2.98 ± 0.1 | 2.92 ± 0.21
GCGWRCPEHGDRVAELFCRRCRRC [TRIM14] | 3.69 ± 0.27 | 4.12 ± 0.18
GCLLPDGSRMMAVAALVVNFSQPV [NLN] | 3.04 ± 0.46 | 2.75 ± 0.81
GDAHFDEDERWTNNFREYNLHRVA [MMP1] | 3.84 ± 0.18 | 4.11 ± 0.33
GDDGIVVVWNAQTGEKLLELNGHT [WDR41] | 3.39 ± 0.11 | 3.3 ± 0.35
GDFEEAFDHLQNRLIATKNPEEIR [TENT5C] | 5.16 ± 0.17 | 5.19 ± 0.21
GDTVVQGDLQETTVVTGLGPDTQD [PBXIP1] | 5.56 ± 0.17 | 5.63 ± 0.23
GEAMLANFKPRGYSECIVTVGGEE [GAN] | 4.38 ± 0.42 | 4.18 ± 0.41
GEARFLPKDLDPSLCTHLIYAFAG [CHIT1] | 2.36 ± 0.27 | 2.44 ± 0.49
GEGLNVIQQTTRYFSTPQTMDLFL [NANOGP8] | 2.09 ± 0.34 | 2.32 ± 0.057
GEVVKIPSRVHGSLEPFRPQQAPQ [PWWP2B] | 4.22 ± 0.21 | 4.16 ± 0.23
GFEYDGKINAWDLYYYMTQTEELK [NLN] | 2.81 ± 0.035 | 2.49 ± 0.39
GFIRHTVNKITFSEQCYYIFGDLC [DVL3] | 3.11 ± 0.86 | 2.64 ± 0.16
GGLMARPEYREWNPELIKPKKLLN [FAM107A] | 3.68 ± 0.36 | 4.495 ± 0.034
GGSAVCASRVKLQHLPAQEQWDRL [PLEKHN1] | 3.08 ± 0.43 | 3.06 ± 0.29
GGYTPDLKMSYSRGLIPVKRGPSS [RBMY1A1] | 3.9 ± 0.14 | 3.8 ± 0.28
GHAAPGTDAGKAFCMFYAVLGIPL [KCNK9] | 2.81 ± 0.19 | 2.84 ± 0.39
GIETLESVPIIGGFWETIFGNRIK [PHTF1] | 2.67 ± 0.41 | 2.81 ± 0.18
GKEPLDPDPSHSPSDKVGRADAHL [TOR1AIP2] | 5.07 ± 0.17 | 5.32 ± 0.057
GKEQGQNLARQWNNCAFLESSAKS [RAP1B] | 4.1 ± 0.17 | 4.13 ± 0.14

Sequence | protein stability index (treatment: DMSO) | protein stability index (treatment: MLN4924 1 uM, 8 h)
GKGSIKELFPTGKQLEPLVAPLAD [VPS39] | 4.08 ± 0.26 | 4.08 ± 0.11
GKQAPRKKAQGKTQQNRKLTDFYP [KMT5A] | 3.64 ± 0.42 | 4.21 ± 0.41
GLGASTAEISARTMQSMFAKNFHV [PTPRD] | 2.38 ± 0.26 | 2.56 ± 0.35
GLIISGPILQEGMDEEKLKQLNCV [DLC1] | 3.52 ± 0.2 | 3.42 ± 0.3
GLLEAPGLQPVVFVLFLFAYLVTV [OR3A1] | 2.53 ± 0.98 | 2.61 ± 0.8
GLSDPGKIKRLRSQVQVSLEDYIN [HNF4A] | 2.78 ± 0.34 | 2.93 ± 0.18
GLVLLKHALGSPEKVKACQGQYET [TBC1D10A] | 2.74 ± 0.33 | 2.94 ± 0.047
GNISGEFWLGNEALHSLTQAGDYS [TNXB] | 3.21 ± 0.091 | 3.36 ± 0.34
GPCKNCKMIMDTAGNDPYCFVEFH [TIA1] | 2.2 ± 0.31 | 2.25 ± 0.35
GPGGRRAGEPGHSPADYLRFQDLV [DYRK1B] | 3.07 ± 0.35 | 3.27 ± 0.6
GPWQLNVFVCRVSAVLFYVNMYVS [P2RY14] | 2.77 ± 0.36 | 2.72 ± 0.79
GRLGRRDEDAGLPRPVQLDETHPY [NEK8] | 4.46 ± 0.066 | 4.7 ± 0.1
GRNRLYHDGKNQPSKTYPAFLEPD [SPSB1] | 4.13 ± 0.12 | 4.37 ± 0.072
GRVEVLKNGEWGTVCDDKWDLVSA [LOXL2] | 4.2 ± 0.32 | 3.56 ± 0.64
GSGPIQLWQFLLELLTDKSCQSFI [ETS1] | 1.88 ± 0.67 | 2.94 ± 1.2
GSLEKALPIIQSNQVSSNSWGIAG [DLC1] | 3.35 ± 0.3 | 3.6 ± 0.2
GSTLGGSSYSSCYSFGSGGGYGSS [KRT17] | 2.77 ± 0.23 | 2.98 ± 0.6
GSVAVVEAECEKSSATTYFWYREA [SLC6A17] | 2.81 ± 0.48 | 2.62 ± 0.35
GTADGADLRTVDPETQARLEALLE [ANKRD17] | 4.42 ± 0.15 | 4.5 ± 0.21
GTSTLLVWVGVIRYLTFFHNYNIL [MCOLN1] | 3.35 ± 0.16 | 2.99 ± 0.2
